Earlier results on one substance are cited in patent US20090004190A1, “Rage Fusion Proteins And Methods Of Use” (priority 2006, published 2009).

For series [1] the following is noted: assessed by retention of immunoreactivity sRAGE.

For “human sRAGE: human soluble RAGE (SEQ ID NO: 4)”, the half-life in plasma entry is listed as “about 2 hours”. In addition, in series [1], the half-life result is on record as “less than 2 hours”.
